Target: non-natural gp130:IL-11R:LIFR cytokine receptor complex on Ba/F3-gp130:IL-11R:LIFR cells (UniProt P40189)
Sequence (P40189 23-918, chain 1 of 3): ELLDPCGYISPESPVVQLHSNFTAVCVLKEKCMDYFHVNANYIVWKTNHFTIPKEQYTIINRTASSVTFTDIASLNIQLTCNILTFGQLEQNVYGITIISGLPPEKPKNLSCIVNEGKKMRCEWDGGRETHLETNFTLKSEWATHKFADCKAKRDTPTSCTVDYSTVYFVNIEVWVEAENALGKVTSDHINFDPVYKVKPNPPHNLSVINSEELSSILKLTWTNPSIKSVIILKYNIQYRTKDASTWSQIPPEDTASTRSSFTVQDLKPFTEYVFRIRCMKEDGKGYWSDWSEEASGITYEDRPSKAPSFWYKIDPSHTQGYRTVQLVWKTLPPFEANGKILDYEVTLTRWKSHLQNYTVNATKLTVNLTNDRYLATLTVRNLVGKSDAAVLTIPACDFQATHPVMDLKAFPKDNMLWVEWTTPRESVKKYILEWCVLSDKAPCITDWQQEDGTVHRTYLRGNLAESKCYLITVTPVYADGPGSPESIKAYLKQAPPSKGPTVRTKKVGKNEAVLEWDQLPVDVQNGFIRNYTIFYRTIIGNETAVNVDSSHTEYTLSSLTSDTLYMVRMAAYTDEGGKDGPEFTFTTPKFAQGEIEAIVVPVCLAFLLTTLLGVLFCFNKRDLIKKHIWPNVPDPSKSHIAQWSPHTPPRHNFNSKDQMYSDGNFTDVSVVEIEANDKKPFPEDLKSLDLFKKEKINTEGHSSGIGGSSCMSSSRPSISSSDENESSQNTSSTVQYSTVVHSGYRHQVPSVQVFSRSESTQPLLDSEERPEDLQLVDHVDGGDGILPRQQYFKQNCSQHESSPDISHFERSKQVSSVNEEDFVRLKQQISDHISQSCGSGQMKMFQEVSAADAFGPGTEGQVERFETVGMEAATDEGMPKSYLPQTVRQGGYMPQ
Sequence (Q14626 23-422, chain 2 of 3, further chain): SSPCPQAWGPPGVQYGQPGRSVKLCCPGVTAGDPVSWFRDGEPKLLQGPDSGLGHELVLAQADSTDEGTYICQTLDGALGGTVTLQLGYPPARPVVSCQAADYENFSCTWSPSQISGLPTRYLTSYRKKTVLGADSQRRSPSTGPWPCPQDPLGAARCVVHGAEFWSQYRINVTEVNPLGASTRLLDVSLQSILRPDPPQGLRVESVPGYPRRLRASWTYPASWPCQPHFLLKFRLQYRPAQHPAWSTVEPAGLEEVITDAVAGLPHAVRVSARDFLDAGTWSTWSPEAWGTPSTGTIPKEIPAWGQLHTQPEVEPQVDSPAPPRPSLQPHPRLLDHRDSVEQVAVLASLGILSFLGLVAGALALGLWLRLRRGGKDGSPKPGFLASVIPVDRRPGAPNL
Sequence (P42702 45-1097, chain 3 of 3, further chain): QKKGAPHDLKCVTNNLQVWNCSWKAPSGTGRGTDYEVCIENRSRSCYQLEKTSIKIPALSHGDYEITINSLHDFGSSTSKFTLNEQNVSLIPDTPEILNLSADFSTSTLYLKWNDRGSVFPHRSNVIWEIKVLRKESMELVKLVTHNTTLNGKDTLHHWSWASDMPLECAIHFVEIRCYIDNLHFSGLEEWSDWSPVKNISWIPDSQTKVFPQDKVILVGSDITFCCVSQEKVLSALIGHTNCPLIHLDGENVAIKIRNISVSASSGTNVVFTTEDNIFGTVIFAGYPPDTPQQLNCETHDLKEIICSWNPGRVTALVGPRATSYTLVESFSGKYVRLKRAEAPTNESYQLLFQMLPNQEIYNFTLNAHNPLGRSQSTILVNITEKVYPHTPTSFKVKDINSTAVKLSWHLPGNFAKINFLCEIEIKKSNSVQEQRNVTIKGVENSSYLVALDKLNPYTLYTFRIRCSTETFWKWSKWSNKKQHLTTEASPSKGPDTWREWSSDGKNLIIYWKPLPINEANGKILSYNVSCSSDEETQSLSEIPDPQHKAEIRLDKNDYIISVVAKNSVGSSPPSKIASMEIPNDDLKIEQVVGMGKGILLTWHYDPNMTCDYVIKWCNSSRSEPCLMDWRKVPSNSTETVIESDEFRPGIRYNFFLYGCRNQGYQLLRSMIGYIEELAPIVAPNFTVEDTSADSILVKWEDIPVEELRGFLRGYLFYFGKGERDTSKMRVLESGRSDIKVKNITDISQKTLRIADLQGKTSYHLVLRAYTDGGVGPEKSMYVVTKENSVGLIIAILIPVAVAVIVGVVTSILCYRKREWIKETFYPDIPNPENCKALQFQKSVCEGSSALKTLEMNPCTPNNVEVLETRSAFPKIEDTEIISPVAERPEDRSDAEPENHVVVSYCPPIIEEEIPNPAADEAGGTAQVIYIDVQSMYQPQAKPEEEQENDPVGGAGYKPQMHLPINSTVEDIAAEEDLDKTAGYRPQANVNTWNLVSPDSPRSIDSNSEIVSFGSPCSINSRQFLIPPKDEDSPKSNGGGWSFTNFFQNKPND

- proliferation of Ba/F3-gp130:IL-11R:LIFR cells (CellTiter Blue), GIL-11 0.0005–500 ng/ml; EC50: 1.44 ng/mL
Substance: cytokimera GIL-11 (from UniProt P20809 22-57; P15018 64-88; P20809 73-110; P15018 119-138; P20809 129-161; P15018 172-189; P20809 180-199) (ligand)
